Sequences and labels used below:
T1: IL-2Rα-Fc fusion protein (human, UniProt P01589 22-240)
T1 construct: also called human IL-2Rα (CD25); CD25; not shown: Fc part and any linker are not described; captured on an anti-human IgG Fc sensor
T1 sequence: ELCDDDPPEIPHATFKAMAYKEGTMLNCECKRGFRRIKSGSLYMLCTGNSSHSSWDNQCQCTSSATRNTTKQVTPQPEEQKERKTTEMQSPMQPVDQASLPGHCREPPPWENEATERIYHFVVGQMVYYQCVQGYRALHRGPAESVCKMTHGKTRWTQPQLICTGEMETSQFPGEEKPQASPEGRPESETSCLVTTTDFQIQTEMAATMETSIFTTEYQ

T2: human CD122-Fc (AbroBio) (human, UniProt P14784 27-239)
T2 construct: also called IL-2Rβ; not shown: Fc part and any linker of the bought protein are not described; captured on an anti-human Fc sensor
T2 sequence: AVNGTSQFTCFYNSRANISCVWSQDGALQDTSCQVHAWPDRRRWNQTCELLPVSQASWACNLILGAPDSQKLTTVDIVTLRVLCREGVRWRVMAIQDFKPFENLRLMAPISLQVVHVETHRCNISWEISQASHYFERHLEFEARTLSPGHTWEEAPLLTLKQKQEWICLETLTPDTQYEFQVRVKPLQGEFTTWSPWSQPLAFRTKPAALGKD

B1: hIL-2-anti-HSA A38 (ligand)
chain: APTSSSTKKTQLQLEHLLLDLQMILNGINNYENPKLTAMLTAKFYMPKKATELKHLQCLEEELKPLEEVLNLAQSKNFHLRPRDLISNINVIVLELKGSETTFMCEYADETATIVEFLNRWITFSQSIISTLTGSGGSGGSGGSGEVQLVESGGGLVQPGGSLRLSCAASGSTWSINTLAWYRQAPGKQRDLVARISSGGSTYYADSVKGRFTISRDNSKNTLYLQMNSLRAEDTAVYYCYAQSTWYPPSWGQGTLVTVSS
notes: fused to anti-HSA VHH; also called IL2 mutein (K32E, R38A, F42A, C125S)
B2: hIL-2-anti-HSA A72 (ligand)
chain: APTSSSTKKTQLQLEHLLLDLQMILNGINNYENPKLTRMLTCKFYMPKKATELKHLQCLEEELKPLEECLNLAQSKNFHLRPRDLISNINVIVLNLKGSETTFMCEYADETATIVEFLNRWITFSQSIISTLTGSGGSGGSGGSGEVQLVESGGGLVQPGGSLRLSCAASGSTWSINTLAWYRQAPGKQRDLVARISSGGSTYYADSVKGRFTISRDNSKNTLYLQMNSLRAEDTAVYYCYAQSTWYPPSWGQGTLVTVSS
notes: fused to anti-HSA VHH; also called hIL-2 mutein (K32E, F42C, V69C, E95N, C125S)
B3: hIL-2-anti-HSA A66 (ligand)
chain: APTSSSTKKTQLQLEHLLSDLQMILNGINNYENPKLTRMLTCKFYMPKKATELKHLQCLEEELKPLEECLNLAQSKNFHLRPRDLISNINVIVLELKGSETTFMCEYADETATIVEFLNRWITFSQSIISTLTGSGGSGGSGGSGEVQLVESGGGLVQPGGSLRLSCAASGSTWSINTLAWYRQAPGKQRDLVARISSGGSTYYADSVKGRFTISRDNSKNTLYLQMNSLRAEDTAVYYCYAQSTWYPPSWGQGTLVTVSS
notes: fused to anti-HSA VHH; also called hIL-2 mutein (L19S, K32E, F42C, V69C, C125S)
B4: hIL-2-anti-HSA A67 (ligand)
chain: APTSSSTKKTQLQLEHLLLDLQMILNGINNYENPKLTRMLTCKFYMPKKATELKHLQCLEEELKPLEECLNLAQSKNFHLRPRTLISNINVIVLELKGSETTFMCEYADETATIVEFLNRWITFSQSIISTLTGSGGSGGSGGSGEVQLVESGGGLVQPGGSLRLSCAASGSTWSINTLAWYRQAPGKQRDLVARISSGGSTYYADSVKGRFTISRDNSKNTLYLQMNSLRAEDTAVYYCYAQSTWYPPSWGQGTLVTVSS
notes: fused to anti-HSA VHH; also called hIL-2 mutein (K32E, F42C, V69C, D84T, C125S)
B5: hIL-2-anti-HSA A61 (ligand)
chain: APASSSTKKTQLQLENLLLDLQMILNGINNYKNPKLTNMTTAKFYMPKKATELKHLQCLEEELKPLEEVLNLAQSKNFHLRPRDLISNINVIVLELKGSETTFMCEYADETATIVEFLNRWITFSQSIISTLTGSGGSGGSGGSGEVQLVESGGGLVQPGGSLRLSCAASGSTWSINTLAWYRQAPGKQRDLVARISSGGSTYYADSVKGRFTISRDNSKNTLYLQMNSLRAEDTAVYYCYAQSTWYPPSWGQGTLVTVSS
notes: fused to anti-HSA VHH; also called hIL-2 mutein (T3A, H16N, R38N, L40T, F42A, C125S)
B6: hIL-2-anti-HSA A63 (ligand)
chain: APASSSTKKTQLQLEHLLLDLQMILNGINNYKNPKLTNMTTAKFYMPKKATELKHLQCLEEELKPLEEVLNLAQSKNFHLRPRDLISNINIIVLELKGSETTFMCEYADETATIVEFLNRWITFSQSIISTLTGSGGSGGSGGSGEVQLVESGGGLVQPGGSLRLSCAASGSTWSINTLAWYRQAPGKQRDLVARISSGGSTYYADSVKGRFTISRDNSKNTLYLQMNSLRAEDTAVYYCYAQSTWYPPSWGQGTLVTVSS
notes: fused to anti-HSA VHH; also called hIL-2 mutein (T3A, R38N, L40T, F42A, V91I, C125S)
B7: hIL-2-anti-HSA A70 (ligand)
chain: APTSSSTKKTQLQLEHLLLDLQMILNGINNYENPKLTRMLTCKFYMPKKATELKHLQCLEEELKPLEECLNLAQSKNFHLRPRDLISNINILVLELKGSETTFMCEYADETATIVEFLNRWITFSQSIISTLTGSGGSGGSGGSGEVQLVESGGGLVQPGGSLRLSCAASGSTWSINTLAWYRQAPGKQRDLVARISSGGSTYYADSVKGRFTISRDNSKNTLYLQMNSLRAEDTAVYYCYAQSTWYPPSWGQGTLVTVSS
notes: fused to anti-HSA VHH; also called hIL-2 mutein (K32E, F42C, V69C, V91I, I92L, C125S)
B8: hIL-2-anti-HSA A71 (ligand)
chain: APTSSSTKKTQLQLEHLLLDLQMILNGINNYENPKLTRMLTCKFYMPKKATELKHLQCLEEELKPLEECLNLAQSKNFHLRPRDLISNINVLVLELKGSETTFMCEYADETATIVEFLNRWITFSQSIISTLTGSGGSGGSGGSGEVQLVESGGGLVQPGGSLRLSCAASGSTWSINTLAWYRQAPGKQRDLVARISSGGSTYYADSVKGRFTISRDNSKNTLYLQMNSLRAEDTAVYYCYAQSTWYPPSWGQGTLVTVSS
notes: fused to anti-HSA VHH; also called hIL-2 mutein (K32E, F42C, V69C, I92L, C125S)
B9: hIL-2-anti-HSA A60 (ligand)
chain: APASSSTKKTQLQLVHLLLDLQMILNGINNYKNPKLTNMTTAKFYMPKKATELKHLQCLEEELKPLEEVLNLAQSKNFHLRPRDLISNINVIVLELKGSETTFMCEYADETATIVEFLNRWITFSQSIISTLTGSGGSGGSGGSGEVQLVESGGGLVQPGGSLRLSCAASGSTWSINTLAWYRQAPGKQRDLVARISSGGSTYYADSVKGRFTISRDNSKNTLYLQMNSLRAEDTAVYYCYAQSTWYPPSWGQGTLVTVSS
notes: fused to anti-HSA VHH; also called hIL-2 mutein (T3A, E15V, R38N, L40T, F42A, C125S)
B10: hIL-2-anti-HSA A65 (ligand)
chain: APTSSSTKKTQLNLEHLLLDLQMILNGINNYENPKLTRMLTCKFYMPKKATELKHLQCLEEELKPLEECLNLAQSKNFHLRPRDLISNINVIVLELKGSETTFMCEYADETATIVEFLNRWITFSQSIISTLTGSGGSGGSGGSGEVQLVESGGGLVQPGGSLRLSCAASGSTWSINTLAWYRQAPGKQRDLVARISSGGSTYYADSVKGRFTISRDNSKNTLYLQMNSLRAEDTAVYYCYAQSTWYPPSWGQGTLVTVSS
notes: fused to anti-HSA VHH; also called hIL-2 mutein (Q13N, K32E, F42C, V69C, C125S)
B11: hIL-2-anti-HSA A69 (ligand)
chain: APTSSSTKKTQLQLEHLLLDLQMILNGINNYENPKLTRMLTCKFYMPKKATELKHLQCLEEELKPLEECLNLAQSKNFHLRPRDLIDNINVIVLELKGSETTFMCEYADETATIVEFLNRWITFSQSIISTLTGSGGSGGSGGSGEVQLVESGGGLVQPGGSLRLSCAASGSTWSINTLAWYRQAPGKQRDLVARISSGGSTYYADSVKGRFTISRDNSKNTLYLQMNSLRAEDTAVYYCYAQSTWYPPSWGQGTLVTVSS
notes: fused to anti-HSA VHH; also called hIL-2 mutein (K32E, F42C, V69C, S87D, C125S)
B12: hIL-2-anti-HSA A68 (ligand)
chain: APTSSSTKKTQLQLEHLLLDLQMILNGINNYENPKLTRMLTCKFYMPKKATELKHLQCLEEELKPLEECLNLAQSKNFHLRPRDLIENINVIVLELKGSETTFMCEYADETATIVEFLNRWITFSQSIISTLTGSGGSGGSGGSGEVQLVESGGGLVQPGGSLRLSCAASGSTWSINTLAWYRQAPGKQRDLVARISSGGSTYYADSVKGRFTISRDNSKNTLYLQMNSLRAEDTAVYYCYAQSTWYPPSWGQGTLVTVSS
notes: fused to anti-HSA VHH; also called hIL-2 mutein (K32E, F42C, V69C, S87E, C125S)
B13: hIL-2-anti-HSA A62 (ligand)
chain: APASSSTKKTQLQLEHLLLDLQKILNGINNYKNPKLTNMTTAKFYMPKKATELKHLQCLEEELKPLEEVLNLAQSKNFHLRPRDLISNINVIVLELKGSETTFMCEYADETATIVEFLNRWITFSQSIISTLTGSGGSGGSGGSGEVQLVESGGGLVQPGGSLRLSCAASGSTWSINTLAWYRQAPGKQRDLVARISSGGSTYYADSVKGRFTISRDNSKNTLYLQMNSLRAEDTAVYYCYAQSTWYPPSWGQGTLVTVSS
notes: fused to anti-HSA VHH; also called hIL-2 mutein (T3A, M23K, R38N, L40T, F42A, C125S)
B14: hIL-2-anti-HSA A59 (ligand)
chain: APASSSTKKTQLELEHLLLDLQMILNGINNYKNPKLTNMTTAKFYMPKKATELKHLQCLEEELKPLEEVLNLAQSKNFHLRPRDLISNINVIVLELKGSETTFMCEYADETATIVEFLNRWITFSQSIISTLTGSGGSGGSGGSGEVQLVESGGGLVQPGGSLRLSCAASGSTWSINTLAWYRQAPGKQRDLVARISSGGSTYYADSVKGRFTISRDNSKNTLYLQMNSLRAEDTAVYYCYAQSTWYPPSWGQGTLVTVSS
notes: fused to anti-HSA VHH; also called hIL-2 mutein (T3A, Q13E, R38N, L40T, F42A, C125S)
B15: hIL-2-anti-HSA A73 (ligand)
chain: APTSSSTKKTQLQLEHLLLDLQMILNGINNYENPKLTRMLTCKFYMPKKATELKHLQCLEEELKPLEECLNLAQSKNFHLRPRDLISNINVIVLQLKGSETTFMCEYADETATIVEFLNRWITFSQSIISTLTGSGGSGGSGGSGEVQLVESGGGLVQPGGSLRLSCAASGSTWSINTLAWYRQAPGKQRDLVARISSGGSTYYADSVKGRFTISRDNSKNTLYLQMNSLRAEDTAVYYCYAQSTWYPPSWGQGTLVTVSS
notes: fused to anti-HSA VHH; also called hIL-2 mutein (K32E, F42C, V69C, E95Q, C125S)
B16: hIL-2-anti-HSA A64 (ligand)
chain: APASSSTKKTQLQLEHLLLDLQMILNGINNYKNPKLTNMTTAKFYMPKKATELKHLQCLEEELKPLEEVLNLAQSKNFHLRPRDLISNINVIVLNLKGSETTFMCEYADETATIVEFLNRWITFSQSIISTLTGSGGSGGSGGSGEVQLVESGGGLVQPGGSLRLSCAASGSTWSINTLAWYRQAPGKQRDLVARISSGGSTYYADSVKGRFTISRDNSKNTLYLQMNSLRAEDTAVYYCYAQSTWYPPSWGQGTLVTVSS
notes: fused to anti-HSA VHH; also called hIL-2 mutein (T3A, R38N, L40T, F42A, E95N, C125S)

This note sets out measurements from patent US20210340208A1 (ANWITA BIOSCIENCES, published 2021).

One assay concerns the target T1, IL-2Rα-Fc fusion protein. Briefly: BLI (Octet RED96), IL-2Rα-Fc on AHC biosensor. How it is done:
OCTET® RED96 was used to characterize the interactions of a wild-type hIL-2 and hIL-2 muteins with a human IL-2Rα (CD25). Briefly, an IL-2Rα-Fc fusion protein was loaded onto an anti-human IgG Fc capture (AHC) biosensor. The biosensor was then dipped into a solution containing a wild-type hIL-2 (WT IL-2) or an IL-2 mutein at various concentrations. Primary experimental data was analyzed with global fitting to determine a binding affinity (Kd).
For orientation: Biolayer interferometry detects binding as a change in optical thickness at a sensor tip.
Consider B1, for which the binding result is reported as “no binding”.

The target of another assay is T2, human CD122-Fc (AbroBio). Briefly: BLI (Octet RED96), CD122-Fc on AHC sensor, 400 nM hIL-2 polypeptide. The procedure: OCTET® RED96 was used to characterize the interactions of a human CD122-Fc (AbroBio) with a wild-type hIL-2 and hIL-2 muteins. Briefly, an anti-human Fc sensor (AHC) loaded with the human CD122 was dip into 400 nM of an hIL-2 polypeptide. The binding signaling of fusion protein A1 was normalized to 1.
Turning to B2, the “CD122 Binding Response (A1 normalized to 1)” value is 0.39. With B3, the “CD122 Binding Response (A1 normalized to 1)” value came out at 0.65. With B4, the “CD122 Binding Response (A1 normalized to 1)” value was 0.3.

B5: the “CD122 Binding Response (A1 normalized to 1)” value came to 0.17. Same read-out and setting: with B6 the figure was 0.35; with B7, 1.31. The same measure, in the same setting: with B8 the figure was 1.44. Regarding B9, the “CD122 Binding Response (A1 normalized to 1)” value was 0.14. Same read-out and setting: with B10 the figure was 0.5; with B11, 1.93. On the same count and under the same terms, with B12 the figure was 1.72; with B13, 0.29. Regarding B14, the “CD122 Binding Response (A1 normalized to 1)” value turned out to be 0.55. Still for that read-out and setting: in the case of B15 it was 0.38; in that of B16, 0.22.
